# T1: TC-bound 57Co cobalamin (cyanocobalamin-transcobalamin complex) (Homo sapiens, UniProt P20062)
# T1 construct: from tissue; host or cells: human donor serum
# T1 sequence (P20062 19-427): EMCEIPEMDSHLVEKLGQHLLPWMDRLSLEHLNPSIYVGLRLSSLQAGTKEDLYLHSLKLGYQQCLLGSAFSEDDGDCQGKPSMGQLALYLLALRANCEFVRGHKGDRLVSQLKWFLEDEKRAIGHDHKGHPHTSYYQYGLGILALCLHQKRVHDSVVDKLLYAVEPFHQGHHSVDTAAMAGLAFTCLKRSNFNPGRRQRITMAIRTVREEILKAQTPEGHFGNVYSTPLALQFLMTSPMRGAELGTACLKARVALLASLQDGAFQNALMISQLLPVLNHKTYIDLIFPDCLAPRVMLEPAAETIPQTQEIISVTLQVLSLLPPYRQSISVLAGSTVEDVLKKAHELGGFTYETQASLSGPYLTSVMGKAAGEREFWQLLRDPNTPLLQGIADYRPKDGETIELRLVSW
# How the values were obtained:
# [1] = target: T1, TC-bound 57Co cobalamin (cyanocobalamin-transcobalamin complex); test: Release of 57Co cyanocobalamin from transcobalamin using proteases; type: biochemical; conditions: 50 U protease, human donor serum, TC captured on antibody-coated magnetic microspheres; 15 min (chymotrypsin 45 min); FIG. 1
# Description: 25 μl tracer solution and 2.5 μl cyanocobalamin solution were added to 400 μl human donor serum. Tris-HCl 0.1 M pH 7.4 was run as a control. After addition of 50 μl capturing reagent, the samples were incubated on a coulter mixer for 1 hour at room temperature. The samples were placed in a magnetic rack for 3 minutes for separation of the capturing reagent. Subsequently, the rack was inverted and incubated for another 3 minutes. The supernatant was discarded and 500 μl of washing buffer was added. The samples were vortexed and placed in the magnetic rack for 3 minutes. Subsequently, the rack was inverted again and the samples were incubated for another 3 minutes. After separation, the washing buffer was discarded and 50 U of subtilisin Carlsberg, in 200 μl Tris-HCl 0.1 M pH 7.4 5 mM Ca^2+, was added. After incubation for 15 minutes at 50° C. in a shaking water bath, the samples were put on a magnetic rack for 3 minutes for separation of the capturing reagent. The rack was inverted and incubated for another 3 minutes. The supernatant was discarded and the pellet was counted for 5 minutes on a gamma counter.
# Similar experiments were performed with proteinase K (50 U) in Tris-HCl 0.1 M pH 7.4 5 mM Ca^2+ incubated at 37° C., thermolysin (50 U) in Tris-HCl 0.1 M pH 7.4 5 mM Ca^2+ 5 mM Zn^2+, and chymotrypsin (50 U) in Tris-HCl 0.1 M pH 7.4 incubated for 45 min. at 37° C. […]
# [2] = test system: Anti haptocorrin antibodies (ELISA); test: Cross-reactivity of the haptocorrin ELISA towards other cobalamin binding proteins; design: species or system rabbit; conditions: 100 nmol/L in the assay mixture
# Description: Antibodies. Anti haptocorrin was produced by DakoCytomation A/S, Denmark by immunising rabbits with 200 μg pure haptocorrin produced as previously described (12) and deglycosylated as described above. The gamma globulin fraction was pre-pared (13) from serum obtained after 7 immunisations.
# ELISA. The principle of the ELISA assay used was an immobilised capture antibody (0.1 ug gamma globulin/well, rabbit nr F7773) catching the analyte and a biotinylated detection antibody (gamma globulin 3 ug/L, rabbit nr 7772) visualised by avidin/Horse Radish Peroxidase (HRP). Colour development by addition of 3,3′,5,5′-tetramethyl-benzidin was proportional to the concentration of analyte. The assay procedure was as previously described for transcobalamin (14, 15). In brief, calibrator, sample or control (100 μL, final dilution 1:30) was incubated for 1 hour at room temperature prior to washing and incubation for 30 min with the biotinylated detection antibody. The attached biotinylated antibody was detected employing avidin/HRP and colour development was determined by measuring the absorbance at 420 nm and correcting for the absorbance at 620 nm. The calibrator employed was deglycosylated pure human haptocorrin. All samples were run in true duplicates, where deglycosylation was performed on two independent samples.
# Samples. […]
Molecule,release of cyanocobalamin from its complex with transcobalamin (counts remaining in the sample) [1],cross-reactivity in haptocorrin ELISA [2]
"subtilisin Carlsberg: subtilisin Carlsberg from Bacillus licheniformis (EC 3.4.21.62) (Sigma Aldrich) (protein, UniProt P00780 106-379, looked up) Subtilisin Carlsberg: AQTVPYGIPLIKADKVQAQGFKGANVKVAVLDTGIQASHPDLNVVGGASFVAGEAYNTDGNGHGTHVAGTVAALDNTTGVLGVAPSVSLYAVKVLNSSGSGSYSGIVSGIEWATTNGMDVINMSLGGASGSTAMKQAVDNAYAKGVVVVAAAGNSGSSGNTNTIGYPAKYDSVIAVGAVDSNSNRASFSSVGAELEVMAPGAGVYSTYPTNTYATLNGTSMASPHVAGAAALILSKHPNLSASQVRNRLSSTATYLGSSFYYGKGLINVEAAAQ",most effective,
"Proteinase K: proteinase K from Tritrachium album (EC 3.4.21.64) (Sigma Aldrich) (protein, UniProt P06873 106-384, looked up) Proteinase K: AAQTNAPWGLARISSTSPGTSTYYYDESAGQGSCVYVIDTGIEASHPEFEGRAQMVKTYYYSSRDGNGHGTHCAGTVGSRTYGVAKKTQLFGVKVLDDNGSGQYSTIIAGMDFVASDKNNRNCPKGVVASLSLGGGYSSSVNSAAARLQSSGVMVAVAAGNNNADARNYSPASEPSVCTVGASDRYDRRSSFSNYGSVLDIFGPGTSILSTWIGGSTRSISGTSMATPHVAGLAAYLMTLGKTTAASACRYIADTANKGDLSNIPFGTVNLLAYNNYQA",most effective,
"transcobalamin: cobalamin binding protein; pure TC dissolved in phosphate buffer 0.1 M containing albumin 0.1% (protein, UniProt P20062 19-427, looked up) Transcobalamin-2: EMCEIPEMDSHLVEKLGQHLLPWMDRLSLEHLNPSIYVGLRLSSLQAGTKEDLYLHSLKLGYQQCLLGSAFSEDDGDCQGKPSMGQLALYLLALRANCEFVRGHKGDRLVSQLKWFLEDEKRAIGHDHKGHPHTSYYQYGLGILALCLHQKRVHDSVVDKLLYAVEPFHQGHHSVDTAAMAGLAFTCLKRSNFNPGRRQRITMAIRTVREEILKAQTPEGHFGNVYSTPLALQFLMTSPMRGAELGTACLKARVALLASLQDGAFQNALMISQLLPVLNHKTYIDLIFPDCLAPRVMLEPAAETIPQTQEIISVTLQVLSLLPPYRQSISVLAGSTVEDVLKKAHELGGFTYETQASLSGPYLTSVMGKAAGEREFWQLLRDPNTPLLQGIADYRPKDGETIELRLVSW",,No cross-reactivity

# From patent publication US7727972B2, “Methods for determining absorption of cobalamin or analogues thereof” (DrugTech Corporation, priority 2004, dated 2010)
